Source: publication doi:10.1101/2021.07.23.453429

Assays:
[1] = target: cyclophilin D (UniProt P30405); test: NMR titration
[2] = target: cyclophilin D (UniProt P30405); test: SPR

Chain of cyclophilin D (P30405 43-207): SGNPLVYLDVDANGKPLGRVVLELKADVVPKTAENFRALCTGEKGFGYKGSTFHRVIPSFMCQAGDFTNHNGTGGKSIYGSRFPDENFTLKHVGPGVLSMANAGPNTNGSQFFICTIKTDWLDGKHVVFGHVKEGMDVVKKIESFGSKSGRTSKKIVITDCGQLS

p53 N-terminal domain (NTD) (domain or fragment)
residue-based KD (CypD residue G65) [1]: 4.1 μΜ
residue-based KD (CypD residue I114) [1]: 32 μΜ
residue-based KD (CypD residue S77) [1]: 6.6 μΜ
Kd [2]: 8.4 µM

p53 NTD-DBD (domain or fragment)
Kd [2]: 10 µM
